Here are results for two substances from IntAct's records for PubMed 22939626.

In the experiment the target is vira_shifl virA (UniProt Q7BU69).
Sequence of vira_shifl virA (Q7BU69 whole entry): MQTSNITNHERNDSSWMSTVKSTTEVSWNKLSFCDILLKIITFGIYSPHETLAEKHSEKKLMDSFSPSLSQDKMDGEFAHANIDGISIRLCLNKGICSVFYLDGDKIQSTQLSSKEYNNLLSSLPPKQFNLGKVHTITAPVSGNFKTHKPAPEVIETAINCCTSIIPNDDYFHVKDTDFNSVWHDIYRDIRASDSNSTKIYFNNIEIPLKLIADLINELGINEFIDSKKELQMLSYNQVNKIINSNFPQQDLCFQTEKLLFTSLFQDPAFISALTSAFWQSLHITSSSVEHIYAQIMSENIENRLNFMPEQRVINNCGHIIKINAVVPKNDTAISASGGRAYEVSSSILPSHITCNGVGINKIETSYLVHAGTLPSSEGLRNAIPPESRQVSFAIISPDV

Sequence of Ras-related protein Rab-1A (Homo sapiens), P62820 S25N (P62820 whole entry S25N): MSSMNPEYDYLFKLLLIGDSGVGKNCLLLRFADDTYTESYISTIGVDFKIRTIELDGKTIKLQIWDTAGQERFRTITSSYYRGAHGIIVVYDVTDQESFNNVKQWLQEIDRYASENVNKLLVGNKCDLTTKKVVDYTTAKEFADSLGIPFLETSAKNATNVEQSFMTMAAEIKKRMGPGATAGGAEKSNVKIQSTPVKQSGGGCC
Sequence of Ras-related protein Rab-1A (Homo sapiens), P62820 Q70L (P62820 whole entry Q70L): as the sequence (P62820 whole entry S25N) above, with N25S, Q70L counted along it

“Ras-related protein Rab-1A (Homo sapiens), P62820 Q70L”: the “effect of a mutation on the interaction” value is reported as “increasing interaction strength”. Consider “Ras-related protein Rab-1A (Homo sapiens), P62820 S25N”, for which the “effect of a mutation on the interaction” value is “decreasing interaction strength”.
